According to patent US20230212549A1, “COMPOUNDS COMPRISING A […] LIGAND AND USE THEREOF” (priority 2021, published 2023):
Bridge positions count the residues as written; N and C are the ends.

How the values were obtained:
[1] = molecular target: T1, Potassium Channel hERG (human) (human), Q12809; test: radioligand displacement ([3H] Dofetilide), 10 µM; conditions: remark: other sources report otherwise
T1 chain: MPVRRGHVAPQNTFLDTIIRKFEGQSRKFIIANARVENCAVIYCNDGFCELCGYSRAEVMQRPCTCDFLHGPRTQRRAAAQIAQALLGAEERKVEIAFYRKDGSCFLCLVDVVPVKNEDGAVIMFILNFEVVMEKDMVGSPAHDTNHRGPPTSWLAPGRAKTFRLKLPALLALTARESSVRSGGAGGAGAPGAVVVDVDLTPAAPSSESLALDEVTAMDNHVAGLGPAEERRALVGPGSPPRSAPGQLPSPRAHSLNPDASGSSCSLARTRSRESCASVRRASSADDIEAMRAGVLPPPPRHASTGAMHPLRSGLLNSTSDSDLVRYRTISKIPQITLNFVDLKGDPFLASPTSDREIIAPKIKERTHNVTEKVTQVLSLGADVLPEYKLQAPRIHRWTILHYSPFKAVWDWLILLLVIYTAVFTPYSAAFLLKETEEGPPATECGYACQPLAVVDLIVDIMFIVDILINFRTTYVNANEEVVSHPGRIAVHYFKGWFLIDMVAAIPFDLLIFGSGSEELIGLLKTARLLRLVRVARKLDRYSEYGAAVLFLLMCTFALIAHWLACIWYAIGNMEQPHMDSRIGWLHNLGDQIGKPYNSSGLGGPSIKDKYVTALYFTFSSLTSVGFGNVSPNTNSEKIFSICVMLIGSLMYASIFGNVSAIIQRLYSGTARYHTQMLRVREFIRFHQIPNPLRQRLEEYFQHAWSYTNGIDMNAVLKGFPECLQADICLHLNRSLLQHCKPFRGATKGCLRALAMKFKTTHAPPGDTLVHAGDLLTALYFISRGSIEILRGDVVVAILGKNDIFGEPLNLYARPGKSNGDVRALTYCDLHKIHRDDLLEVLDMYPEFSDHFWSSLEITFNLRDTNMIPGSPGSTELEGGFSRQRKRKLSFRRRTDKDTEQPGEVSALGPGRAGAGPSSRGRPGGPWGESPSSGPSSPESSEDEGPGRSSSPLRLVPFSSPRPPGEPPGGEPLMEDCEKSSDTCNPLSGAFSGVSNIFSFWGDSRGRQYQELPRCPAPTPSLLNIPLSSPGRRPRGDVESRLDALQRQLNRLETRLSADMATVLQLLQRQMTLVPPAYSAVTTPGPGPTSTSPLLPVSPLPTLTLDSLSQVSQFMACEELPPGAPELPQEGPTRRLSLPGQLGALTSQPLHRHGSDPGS

[2] = molecular target: T2, Matrix metalloprotease 1, P03956; test: cell-based or functional assay
T2 chain: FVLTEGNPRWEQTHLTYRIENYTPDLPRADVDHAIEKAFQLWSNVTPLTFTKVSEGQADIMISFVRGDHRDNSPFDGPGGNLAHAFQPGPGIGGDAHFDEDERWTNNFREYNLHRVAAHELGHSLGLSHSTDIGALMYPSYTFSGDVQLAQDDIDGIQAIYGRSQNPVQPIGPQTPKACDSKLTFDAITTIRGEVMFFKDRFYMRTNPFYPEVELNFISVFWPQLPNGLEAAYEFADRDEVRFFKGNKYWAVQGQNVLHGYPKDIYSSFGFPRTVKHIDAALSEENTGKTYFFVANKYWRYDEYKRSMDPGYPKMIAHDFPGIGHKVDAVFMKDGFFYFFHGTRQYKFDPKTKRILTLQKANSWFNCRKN

Beta secretase, P56817 = test: cell-based or functional assay
[3] = molecular target: T3, Ubiquitin carboxyl-terminal hydrolase 5, P45974; test: cell-based or functional assay
T3 chain: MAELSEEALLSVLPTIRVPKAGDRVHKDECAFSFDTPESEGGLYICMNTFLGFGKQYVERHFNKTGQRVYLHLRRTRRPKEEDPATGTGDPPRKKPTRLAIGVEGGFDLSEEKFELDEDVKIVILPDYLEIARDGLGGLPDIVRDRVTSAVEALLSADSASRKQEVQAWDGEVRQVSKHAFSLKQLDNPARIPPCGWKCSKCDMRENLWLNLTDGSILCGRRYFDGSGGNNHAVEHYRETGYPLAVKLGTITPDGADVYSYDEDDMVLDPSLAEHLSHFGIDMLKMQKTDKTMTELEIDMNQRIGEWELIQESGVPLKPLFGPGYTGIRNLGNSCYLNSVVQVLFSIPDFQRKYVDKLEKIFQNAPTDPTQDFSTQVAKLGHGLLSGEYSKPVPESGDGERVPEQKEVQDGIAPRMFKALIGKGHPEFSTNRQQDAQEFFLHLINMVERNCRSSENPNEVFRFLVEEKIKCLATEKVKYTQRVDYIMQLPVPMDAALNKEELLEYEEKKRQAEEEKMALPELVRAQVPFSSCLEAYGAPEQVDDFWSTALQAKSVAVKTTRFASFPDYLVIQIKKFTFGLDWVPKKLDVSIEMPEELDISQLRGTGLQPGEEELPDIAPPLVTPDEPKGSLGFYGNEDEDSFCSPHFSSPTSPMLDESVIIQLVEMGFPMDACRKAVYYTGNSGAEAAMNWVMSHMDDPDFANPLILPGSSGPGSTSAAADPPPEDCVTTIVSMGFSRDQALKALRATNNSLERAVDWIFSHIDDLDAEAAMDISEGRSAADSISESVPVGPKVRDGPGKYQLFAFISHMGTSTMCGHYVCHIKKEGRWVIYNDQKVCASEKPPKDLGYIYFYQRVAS

[4] = molecular target: Ubiquitin carboxyl-terminal hydrolase 7, Q93009; test: cell-based or functional assay
[5] = molecular target: Ubiquitin carboxyl-terminal hydrolase 10, Q14694; test: cell-based or functional assay
[6] = molecular target: Ubiquitin carboxyl-terminal hydrolase 14, P54578; test: cell-based or functional assay
[7] = molecular target: Matrix metalloprotease 9 (mutant Q279R), P14780; test: cell-based or functional assay
Sequence of Matrix metalloprotease 9 (mutant Q279R), P14780 (P14780 107-707 Q279R): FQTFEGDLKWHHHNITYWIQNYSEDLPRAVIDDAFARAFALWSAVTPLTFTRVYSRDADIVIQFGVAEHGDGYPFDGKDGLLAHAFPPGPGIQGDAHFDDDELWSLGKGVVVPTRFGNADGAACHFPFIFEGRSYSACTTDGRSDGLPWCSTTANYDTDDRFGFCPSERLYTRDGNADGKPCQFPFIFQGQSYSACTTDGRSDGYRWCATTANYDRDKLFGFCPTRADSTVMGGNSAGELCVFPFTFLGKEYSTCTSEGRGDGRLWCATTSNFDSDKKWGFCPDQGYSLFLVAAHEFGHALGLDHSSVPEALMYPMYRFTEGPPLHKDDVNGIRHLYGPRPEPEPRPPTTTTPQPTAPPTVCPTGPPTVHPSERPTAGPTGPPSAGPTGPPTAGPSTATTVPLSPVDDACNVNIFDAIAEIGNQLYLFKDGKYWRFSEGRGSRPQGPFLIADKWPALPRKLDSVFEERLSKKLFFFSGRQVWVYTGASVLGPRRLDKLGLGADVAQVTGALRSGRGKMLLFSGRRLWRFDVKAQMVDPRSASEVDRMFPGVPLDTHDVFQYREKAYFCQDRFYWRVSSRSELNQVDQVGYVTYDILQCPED

Sequence of Beta secretase, P56817 (P56817 22-457 limits assumed): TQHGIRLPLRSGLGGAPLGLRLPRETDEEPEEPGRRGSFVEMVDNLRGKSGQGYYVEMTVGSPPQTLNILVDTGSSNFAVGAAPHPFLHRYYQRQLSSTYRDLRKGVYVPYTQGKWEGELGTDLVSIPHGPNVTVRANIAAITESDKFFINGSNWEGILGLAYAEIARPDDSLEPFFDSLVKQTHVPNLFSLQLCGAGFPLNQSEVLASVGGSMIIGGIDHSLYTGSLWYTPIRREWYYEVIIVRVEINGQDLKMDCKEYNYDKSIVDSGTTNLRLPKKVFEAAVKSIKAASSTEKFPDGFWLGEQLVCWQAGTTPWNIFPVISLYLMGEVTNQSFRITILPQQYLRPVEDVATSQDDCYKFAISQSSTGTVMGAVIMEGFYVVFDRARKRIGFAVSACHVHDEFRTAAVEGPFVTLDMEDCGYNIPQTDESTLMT
Sequence of Ubiquitin carboxyl-terminal hydrolase 10, Q14694 (Q14694 whole entry): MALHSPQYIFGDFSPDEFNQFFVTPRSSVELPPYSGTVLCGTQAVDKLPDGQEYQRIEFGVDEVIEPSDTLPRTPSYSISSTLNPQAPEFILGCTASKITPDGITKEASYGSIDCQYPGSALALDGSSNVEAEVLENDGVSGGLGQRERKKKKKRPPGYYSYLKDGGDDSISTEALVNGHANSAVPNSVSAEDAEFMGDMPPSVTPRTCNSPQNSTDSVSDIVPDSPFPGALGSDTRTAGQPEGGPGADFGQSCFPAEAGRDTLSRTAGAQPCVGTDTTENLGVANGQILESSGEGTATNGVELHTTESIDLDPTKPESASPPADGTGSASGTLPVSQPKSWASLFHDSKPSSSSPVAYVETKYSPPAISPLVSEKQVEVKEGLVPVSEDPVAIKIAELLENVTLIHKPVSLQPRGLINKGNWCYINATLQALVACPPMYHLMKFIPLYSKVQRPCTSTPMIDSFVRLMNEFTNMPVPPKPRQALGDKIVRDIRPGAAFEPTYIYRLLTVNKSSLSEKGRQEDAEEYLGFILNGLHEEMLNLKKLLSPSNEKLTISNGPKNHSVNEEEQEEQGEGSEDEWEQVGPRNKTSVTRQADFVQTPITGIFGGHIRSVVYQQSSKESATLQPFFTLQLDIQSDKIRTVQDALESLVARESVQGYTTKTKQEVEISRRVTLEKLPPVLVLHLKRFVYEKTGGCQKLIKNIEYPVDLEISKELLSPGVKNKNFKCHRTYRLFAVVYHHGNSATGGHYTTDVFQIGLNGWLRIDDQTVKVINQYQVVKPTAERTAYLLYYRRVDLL
Sequence of Ubiquitin carboxyl-terminal hydrolase 14, P54578 (P54578 whole entry): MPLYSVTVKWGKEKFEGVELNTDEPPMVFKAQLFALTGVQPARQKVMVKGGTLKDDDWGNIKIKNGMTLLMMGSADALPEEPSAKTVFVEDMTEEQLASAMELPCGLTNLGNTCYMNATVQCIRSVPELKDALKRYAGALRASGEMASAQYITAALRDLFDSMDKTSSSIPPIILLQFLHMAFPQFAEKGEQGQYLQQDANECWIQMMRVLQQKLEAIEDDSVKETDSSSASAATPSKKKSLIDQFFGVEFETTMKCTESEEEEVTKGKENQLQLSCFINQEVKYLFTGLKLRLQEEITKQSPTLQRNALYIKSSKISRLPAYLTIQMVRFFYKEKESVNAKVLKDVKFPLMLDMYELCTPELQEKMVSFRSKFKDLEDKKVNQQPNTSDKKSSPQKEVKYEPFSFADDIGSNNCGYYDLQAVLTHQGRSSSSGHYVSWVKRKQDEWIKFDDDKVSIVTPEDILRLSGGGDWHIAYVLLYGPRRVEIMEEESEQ
Sequence of Ubiquitin carboxyl-terminal hydrolase 7, Q93009 (Q93009 whole entry): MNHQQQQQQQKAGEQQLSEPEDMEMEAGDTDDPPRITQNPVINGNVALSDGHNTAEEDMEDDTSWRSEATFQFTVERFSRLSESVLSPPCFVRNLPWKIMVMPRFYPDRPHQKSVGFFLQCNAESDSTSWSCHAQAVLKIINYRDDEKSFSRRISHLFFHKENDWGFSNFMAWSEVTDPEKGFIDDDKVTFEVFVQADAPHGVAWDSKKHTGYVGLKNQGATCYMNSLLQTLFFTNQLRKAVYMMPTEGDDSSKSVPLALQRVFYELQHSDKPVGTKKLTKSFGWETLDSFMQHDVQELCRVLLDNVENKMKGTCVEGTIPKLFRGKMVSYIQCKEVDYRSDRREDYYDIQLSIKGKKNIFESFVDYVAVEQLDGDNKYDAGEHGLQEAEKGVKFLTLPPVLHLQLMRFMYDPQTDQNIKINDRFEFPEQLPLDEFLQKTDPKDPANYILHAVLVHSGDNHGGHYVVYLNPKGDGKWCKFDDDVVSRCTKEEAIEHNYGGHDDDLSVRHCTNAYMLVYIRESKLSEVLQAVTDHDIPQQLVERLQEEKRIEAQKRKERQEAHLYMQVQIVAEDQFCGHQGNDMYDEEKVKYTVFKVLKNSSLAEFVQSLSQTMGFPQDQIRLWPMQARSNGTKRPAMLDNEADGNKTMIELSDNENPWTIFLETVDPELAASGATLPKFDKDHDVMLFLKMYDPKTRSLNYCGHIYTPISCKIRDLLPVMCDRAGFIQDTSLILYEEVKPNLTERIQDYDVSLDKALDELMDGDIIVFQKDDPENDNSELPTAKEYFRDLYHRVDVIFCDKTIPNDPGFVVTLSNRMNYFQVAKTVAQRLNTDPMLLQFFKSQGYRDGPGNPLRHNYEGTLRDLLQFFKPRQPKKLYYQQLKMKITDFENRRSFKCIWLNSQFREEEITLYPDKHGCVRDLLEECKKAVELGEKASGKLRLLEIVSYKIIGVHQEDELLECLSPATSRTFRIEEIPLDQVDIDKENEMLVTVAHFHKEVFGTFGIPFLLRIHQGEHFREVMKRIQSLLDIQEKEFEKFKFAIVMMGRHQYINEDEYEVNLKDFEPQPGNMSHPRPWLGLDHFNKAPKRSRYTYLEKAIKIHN

B1: Hex-[Cys(tMeBn(DOTA-PP))-Pro-Pro-Thr-Gln-Phe-Cys]-Asp-NH2 (peptide)
peptide: Hex-CPPTQFCD-NH2
modifications: bridge 1-7; not fully specified (bridges); printed as Hex-[Cys(tMeBn(DOTA-PP))-Pro-Pro-Thr-Gln-Phe-Cys]-Asp-NH2
% Inhibition of Specific Binding [1]: 2% | Percentage inhibition (%) at 1 µM [2]: -1% | Percentage inhibition (%) at 10 µM [2]: 2% | Percentage inhibition (%) at 1 µM (Beta secretase, P56817): -8% | Percentage inhibition (%) at 10 µM (Beta secretase, P56817): -5% | Percentage inhibition (%) at 1 µM [3]: 3% | Percentage inhibition (%) at 10 µM [3]: 46% | Percentage inhibition (%) at 1 µM [4]: 5% | Percentage inhibition (%) at 10 µM [4]: 5% | Percentage inhibition (%) at 1 µM [5]: -2% | Percentage inhibition (%) at 10 µM [5]: 5% | Percentage inhibition (%) at 1 µM [6]: -1% | Percentage inhibition (%) at 10 µM [6]: 5% | Percentage inhibition (%) at 1 µM [7]: 3% | Percentage inhibition (%) at 10 µM [7]: 2%

B2: Hex-[Cys(tMeBn(DOTA-AET))-Pro-Pro-Thr-Gln-Phe-Cys]-OH (peptide)
peptide: Hex-CPPTQFC-OH
modifications: bridge 1-7; not fully specified (bridges); printed as Hex-[Cys(tMeBn(DOTA-AET))-Pro-Pro-Thr-Gln-Phe-Cys]-OH
% Inhibition of Specific Binding [1]: 6% | Percentage inhibition (%) at 1 µM [2]: 1% | Percentage inhibition (%) at 10 µM [2]: -7% | Percentage inhibition (%) at 1 µM (Beta secretase, P56817): 1% | Percentage inhibition (%) at 10 µM (Beta secretase, P56817): 7% | Percentage inhibition (%) at 1 µM [3]: -4% | Percentage inhibition (%) at 10 µM [3]: -2% | Percentage inhibition (%) at 1 µM [4]: 1% | Percentage inhibition (%) at 10 µM [4]: 1% | Percentage inhibition (%) at 1 µM [5]: 1% | Percentage inhibition (%) at 10 µM [5]: -1% | Percentage inhibition (%) at 1 µM [6]: 1% | Percentage inhibition (%) at 10 µM [6]: 2% | Percentage inhibition (%) at 1 µM [7]: 3% | Percentage inhibition (%) at 10 µM [7]: 2%
